Measurements published in patent publication US20200347127A1 (CRESCENDO BIOLOGICS, published 2020).
Positions count from the first letter of the chain named. Numbers in names are those of the source. Where two headings read alike, the source gives them in different places.

Key:
recombinant human IL-17A [1] = target: T1, recombinant human IL-17A (human, UniProt Q16552 24-155); assay: cell-based or functional assay
recombinant human IL-17A [2] = target: T1, recombinant human IL-17A; assay: BIAcore single-cycle kinetics on IL-17A (n=2 per legend)
recombinant human IL-17A [3] = target: T1, recombinant human IL-17A; assay: BIAcore single-cycle kinetics, ligand Il-17, 1:1 binding fit, 25 C (n=1 per legend)
recombinant human IL-17A [4] = target: T1, recombinant human IL-17A; assay: cell-based or functional assay; remark: listed apart in the source
recombinant human IL-17A [5] = target: T1, recombinant human IL-17A; assay: BIAcore single-cycle kinetics on IL-17A (n=2 per legend); remark: listed apart in the source
recombinant human IL-17A [6] = target: T1, recombinant human IL-17A; assay: competition ELISA, IL-17A binding to coated IL-17RA-Fc
recombinant human IL-17A [7] = target: T1, recombinant human IL-17A; assay: BIAcore single-cycle kinetics, ligand Il-17, 1:1 binding fit, 25 C (n=1 per legend); remark: listed apart in the source
recombinant human IL-17A [8] = target: T1, recombinant human IL-17A; assay: SPR (BIAcore T200), IL-17A coupled to CM5 chip, single-cycle kinetics
recombinant human IL-17A [9] = target: T1, recombinant human IL-17A; assay: competition ELISA, IL-17A binding to coated IL-17RA-Fc; remark: listed apart in the source
recombinant human IL-17A [10] = target: T1, recombinant human IL-17A; assay: SPR (BIAcore T200), IL-17A coupled to CM5 chip, single-cycle kinetics; remark: listed apart in the source
recombinant human IL-17A [11] = target: T1, recombinant human IL-17A; assay: BIAcore single-cycle kinetics, ligand Il-17, 1:1 binding fit, 25 C (n=1 per legend); remark: listed apart in the source
recombinant human IL-17A [12] = target: T1, recombinant human IL-17A; assay: cell-based or functional assay; remark: listed apart in the source
recombinant human IL-17A [13] = target: T1, recombinant human IL-17A; assay: SPR (BIAcore T200), IL-17A coupled to CM5 chip, single-cycle kinetics; remark: listed apart in the source
recombinant human IL-17A [14] = target: T1, recombinant human IL-17A; assay: cell-based or functional assay; remark: listed apart in the source
recombinant human IL-17A [15] = target: T1, recombinant human IL-17A; assay: BIAcore single-cycle kinetics on IL-17A (n=2 per legend); remark: listed apart in the source
recombinant human IL-17A [16] = target: T1, recombinant human IL-17A; assay: SPR (BIAcore)
recombinant human IL-17A [17] = target: T1, recombinant human IL-17A; assay: BIAcore single-cycle kinetics on immobilised IL-17A, 1:1 binding fit
recombinant human IL-17A [18] = target: T1, recombinant human IL-17A; assay: VH screening as in examples 7 and 8
recombinant human IL-17A [19] = target: T1, recombinant human IL-17A; assay: competition ELISA, IL-17A binding to coated IL-17RA-Fc; FIG. 9A
recombinant human IL-17A [20] = target: T1, recombinant human IL-17A; assay: BIAcore single-cycle kinetics on immobilised IL-17A, 1:1 binding fit; remark: listed apart in the source
IL17E = target: T2, IL17E; assay: specificity ELISA on coated antigen, VH concentration not given
T2 construct: also called IL-25
T2 chain: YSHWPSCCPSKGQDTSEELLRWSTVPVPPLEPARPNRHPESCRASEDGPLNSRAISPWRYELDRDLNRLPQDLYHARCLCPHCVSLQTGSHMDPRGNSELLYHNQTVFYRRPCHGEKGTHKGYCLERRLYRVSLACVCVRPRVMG

IL-17F [21] = target: T3, IL-17F (UniProt Q96PD4 31-163, limits assumed); assay: as above
T3 sequence (looked up): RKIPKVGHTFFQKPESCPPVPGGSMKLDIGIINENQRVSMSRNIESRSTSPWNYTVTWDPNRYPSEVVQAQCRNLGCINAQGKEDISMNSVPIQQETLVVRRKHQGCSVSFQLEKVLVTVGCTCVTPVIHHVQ

recombinant IL-17RA-Fc = target: T4, recombinant IL-17RA-Fc (UniProt Q96F46 33-320); assay: as above
T4 construct: Bought reagent; also called R & D systems cat #177-IR-100; receptor; not shown: Fc part of the bought fusion, not described

murine IL-17A = target: T5, murine IL-17A (murine, UniProt Q62386 26-158, limits assumed); assay: as above
T5 sequence (looked up): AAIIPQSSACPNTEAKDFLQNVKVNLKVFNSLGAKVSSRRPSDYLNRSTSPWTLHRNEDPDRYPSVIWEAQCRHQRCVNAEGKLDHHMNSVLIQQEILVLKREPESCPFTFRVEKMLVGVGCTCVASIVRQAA

IL-17C [22] = target: T6, IL-17C (UniProt Q9P0M4 19-197, limits assumed); assay: as above
T6 sequence (looked up): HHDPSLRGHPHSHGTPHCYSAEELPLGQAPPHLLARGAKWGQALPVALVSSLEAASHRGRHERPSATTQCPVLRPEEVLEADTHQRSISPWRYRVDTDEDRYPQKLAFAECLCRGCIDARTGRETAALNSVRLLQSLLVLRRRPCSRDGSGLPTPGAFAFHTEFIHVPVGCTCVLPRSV

IL-17F [23] = target: T3, IL-17F; assay: as above; remark: listed apart in the source
IL-17C [24] = target: T6, IL-17C; assay: as above; remark: listed apart in the source
recombinant human IL-17A [25] = target: T1, recombinant human IL-17A; assay: cell-based or functional assay; remark: listed apart in the source
recombinant human IL-17A [26] = target: T1, recombinant human IL-17A; assay: BIAcore single-cycle kinetics, ligand Il-17, 1:1 binding fit, 25 C (n=1 per legend); remark: listed apart in the source
recombinant human IL-17A [27] = target: T1, recombinant human IL-17A; assay: BIAcore single-cycle kinetics on IL-17A (n=2 per legend); remark: listed apart in the source

T1 sequence (Q16552 24-155): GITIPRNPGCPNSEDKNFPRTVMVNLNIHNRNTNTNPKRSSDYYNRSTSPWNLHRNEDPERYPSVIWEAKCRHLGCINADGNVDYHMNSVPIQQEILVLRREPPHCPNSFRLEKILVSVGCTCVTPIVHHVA

B1: 3.2-6(G4S)-1.2 (VHH)
VH-linker-VH: QVQLVQSGAEVKKPGASVKVSCKASGYNADAYYINWVRQAPGQGLEWMGSIKPNTGATKYAQKFQGRVTITRDTSISTAYMELSRLRSDDTAVYYCASLDRDTWYPHSYAGWFDAWGQGTLVTVSSAAGGGGSGGGGSGGGGSGGGGSGGGGSGGGGSEVQLVESGGGLVQPGGSLRLSCAASGFTFSSYSMYWVRQAPGKGLEWVAEIKQDGSVQYYVSDVKGRFTISRDNAKNSLYLQMNSLRAEDTAVYYCAKGEILPLYFDYWGQGTLVTVSS
notes: also called Biparatopic 3.2-6(G4S)-1.2
EC50 (recombinant human IL-17A [1]): 0.923 nM
Kd (recombinant human IL-17A [2]): 0.02 nM
Kd (recombinant human IL-17A [3]): 0.0198 nM
koff (recombinant human IL-17A [3]): 3.02e-05 s⁻¹
kon (recombinant human IL-17A [3]): 1.52e+06 M⁻¹ s⁻¹

B2: VH 3.2.1 (clone 3.2 expressed from phagemid vector: with linker residues and His tag) (VHH)
VHH: QVQLVQSGAEVKKPGASVKVSCKASGYNADAYYINWVRQAPGQGLEWMGSIKPNTGATKYAQKFQGRVTITRDTSISTAYMELSRLRSDDTAVYYCASLDRDTWYPHSYAGWFDAWGQGTLVTVSS
notes: Human single VH domain
Cell assay IC50 (nM), IL-17A-induced IL6 release from HT1080 (recombinant human IL-17A [4]): 2.5 nM
Kd (recombinant human IL-17A [5]): 0.212 nM
IC50 (recombinant human IL-17A [6]): 2.5 nM
Kd (recombinant human IL-17A [7]): 0.15 nM
koff (recombinant human IL-17A [7]): 0.000349 s⁻¹
kon (recombinant human IL-17A [7]): 2.28e+06 M⁻¹ s⁻¹
Kd (recombinant human IL-17A [8]): 0.23 nM
koff (recombinant human IL-17A [8]): 0.000252 s⁻¹
kon (recombinant human IL-17A [8]): 1.1e+06 M⁻¹ s⁻¹

B3: Family 5 (clone 5.1) (VHH)
VHH: EVQLVESGGGLVQPGGSLRLSCAASGFTFSSYWMSWVRQAPGKGLEWVANIKQDGSEKYYVDSVKGRFTISRDNAKNSLYLQMNSLRAEDTAVYYCAHGQWPFFDYWGQGTMVTVSS
notes: Human single VH domain
IC50 (recombinant human IL-17A [9]): 337 nM
Kd (recombinant human IL-17A [10]): 166 nM
koff (recombinant human IL-17A [10]): 0.0505 s⁻¹
kon (recombinant human IL-17A [10]): 304000 M⁻¹ s⁻¹

B4: Clone 1.2 (VHH)
VHH: EVQLVESGGGLVQPGGSLRLSCAASGFTFSSYSMYWVRQAPGKGLEWVAEIKQDGSVQYYVSDVKGRFTISRDNAKNSLYLQMNSLRAEDTAVYYCAKGEILPLYFDYWGQGTLVTVSS
Kd (recombinant human IL-17A [11]): 0.675 nM
koff (recombinant human IL-17A [11]): 2.26e-05 s⁻¹
kon (recombinant human IL-17A [11]): 33500 M⁻¹ s⁻¹
EC50 (read off the curve) (recombinant human IL-17A [12]): ~0.8 nM
Kd (recombinant human IL-17A [13]): 0.555 nM
koff (recombinant human IL-17A [13]): 0.000485 s⁻¹
kon (recombinant human IL-17A [13]): 874000 M⁻¹ s⁻¹
Cell assay IC50 (nM), IL-17A-induced IL6 release from HT1080 (recombinant human IL-17A [14]): 0.4 nM
Kd (recombinant human IL-17A [15]): 0.57 nM

B5: VH 1.3.2 (clone 1.3 with C terminal extension and His tag) (VHH)
VHH: B4 VHH with S62D, D63S
notes: Human single VH domain
Kd (recombinant human IL-17A [16]): 0.63 nM
koff (recombinant human IL-17A [17]): 0.000501 s⁻¹
kon (recombinant human IL-17A [17]): 799000 M⁻¹ s⁻¹

B6: VH 1.7.1 (clone 1.7 expressed from phagemid vector: with linker residues and His tag) (VHH)
VHH: B4 VHH with E1Q, S33G, E50K, K52E, V57E, Q58E, S62D, D63S, N77K
notes: Human single VH domain
fold improved affinity over clone 1.1 (recombinant human IL-17A [18]): ≤ 10 fold
Kd (recombinant human IL-17A [13]): 0.609 nM
koff (recombinant human IL-17A [13]): 0.000466 s⁻¹
kon (recombinant human IL-17A [13]): 765000 M⁻¹ s⁻¹
Cell assay IC50 (nM), IL-17A-induced IL6 release from HT1080 (recombinant human IL-17A [14]): 2 nM
IC50 (recombinant human IL-17A [19]): 7 nM

B7: VH 1.10.1 (clone 1.10 expressed from phagemid vector: with linker residues and His tag) (VHH)
VHH: B4 VHH with S33R, E50S, K52E, V57E, Q58E, S62D, D63S, N77K, Y80F
notes: Human single VH domain
koff (recombinant human IL-17A [20]): 0.000755 s⁻¹
kon (recombinant human IL-17A [20]): 700000 M⁻¹ s⁻¹
fold improved affinity over clone 1.1 (recombinant human IL-17A [18]): ≤ 10 fold
binding result (IL17E): no binding
binding result (IL-17F [21]): no binding
binding result (recombinant IL-17RA-Fc): no binding
binding result (murine IL-17A): binds
binding result (IL-17C [22]): no binding
Kd (recombinant human IL-17A [13]): 1.46 nM
koff (recombinant human IL-17A [13]): 0.000966 s⁻¹
kon (recombinant human IL-17A [13]): 664000 M⁻¹ s⁻¹
Cell assay IC50 (nM), IL-17A-induced IL6 release from HT1080 (recombinant human IL-17A [14]): 1.9 nM
Kd (recombinant human IL-17A [16]): 1 nM
IC50 (recombinant human IL-17A [19]): 4 nM

B8: VH 1.6.1 (clone 1.6 expressed from phagemid vector: with linker residues and His tag) (VHH)
VHH: B4 VHH with V57E, S62D, D63S
notes: Human single VH domain
fold improved affinity over clone 1.1 (recombinant human IL-17A [18]): ≤ 10 fold
binding result (IL-17F [23]): no binding
binding result (IL17E): no binding
binding result (IL-17C [24]): no binding
Kd (recombinant human IL-17A [13]): 0.627 nM
koff (recombinant human IL-17A [13]): 0.000482 s⁻¹
kon (recombinant human IL-17A [13]): 770000 M⁻¹ s⁻¹
Cell assay IC50 (nM), IL-17A-induced IL6 release from HT1080 (recombinant human IL-17A [14]): 1.3 nM
Kd (recombinant human IL-17A [16]): 0.63 nM
IC50 (recombinant human IL-17A [19]): 5 nM

B9: Family 2 (clone 2.1) (VHH)
VHH: QVQLVESGGGLVQPGGSLRLSCAASGFTFSSYGMGWVRQAPGKGLEWVAKIKQDGSEKDYVDSVKGRFTISRDNAKKSLFLQMNSLRAEDTAVYYCARESIFGIPEDWGQGTLVTVSS
notes: Human single VH domain; also called VH 2.1.1
IC50 (recombinant human IL-17A [9]): 32 nM
Cell assay IC50 (nM), IL-17A-induced IL6 release from HT1080 (recombinant human IL-17A [25]): 8.3 nM
Kd (recombinant human IL-17A [10]): 2 nM
koff (recombinant human IL-17A [10]): 0.00247 s⁻¹
kon (recombinant human IL-17A [10]): 1.22e+06 M⁻¹ s⁻¹

B10: 3.2-2(G4S)-1.2 (VHH)
VH-linker-VH: QVQLVQSGAEVKKPGASVKVSCKASGYNADAYYINWVRQAPGQGLEWMGSIKPNTGATKYAQKFQGRVTITRDTSISTAYMELSRLRSDDTAVYYCASLDRDTWYPHSYAGWFDAWGQGTLVTVSSAAGGGGSGGGGSEVQLVESGGGLVQPGGSLRLSCAASGFTFSSYSMYWVRQAPGKGLEWVAEIKQDGSVQYYVSDVKGRFTISRDNAKNSLYLQMNSLRAEDTAVYYCAKGEILPLYFDYWGQGTLVTVSS
notes: also called Biparatopic: 3.2-2(G4S)-1.2
EC50 (recombinant human IL-17A [1]): 1.07 nM
Kd (recombinant human IL-17A [26]): 0.0429 nM
koff (recombinant human IL-17A [26]): 4.75e-05 s⁻¹
kon (recombinant human IL-17A [26]): 1.1e+06 M⁻¹ s⁻¹
Kd (recombinant human IL-17A [27]): 0.045 nM
